Laboratory results from patent US20190338002A1 (Pieris, published 2019).

Tests used:
[1] = biological target: T1, human alpha CGRP (SEQ ID NO: 80) (human, not fully specified); test: competition ELISA in solution; free mutein detected on plate-bound biotinylated CGRP
T1 construct: also called human αCGRP; hαCGRP
T1 peptide: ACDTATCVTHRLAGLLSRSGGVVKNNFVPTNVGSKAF
Protocol: (§1) Binding of lipocalin muteins to alpha and beta CGRP from human and rat in solution was tested in vitro using a competition ELISA assay format (FIG. 1). In this experiment, a constant concentration of non-biotinylated CGRP (0.5 μM) was incubated for 1 h with variable concentrations of lipocalin muteins SEQ ID NO: 2, SEQ ID NO: 3, SEQ ID NO: 4; SEQ ID NO: 5, and SEQ ID NO: 6. After this pre-incubation in solution, an aliquot of the lipocalin mutein/CGRP mixture was transferred to an ELISA plate coated with Neutravidin-captured human alpha CGRP-bio to measure the concentration of lipocalin muteins that was not blocked by non-biotinylated human alpha CGRP (SEQ ID NO: 80) and therefore could still be bound by the immobilized human alpha CGRP-bio (FIG. 1). This procedure was performed on another relevant CGRP species (human beta CGRP (SEQ ID NO: 81), rat alpha CGRP (SEQ ID NO: 82), rat beta CGRP (SEQ ID NO: 83)). All incubation steps were performed with shaking at 300 rpm, and the plate was washed after each incubation step with 80 μL PBS-T buffer (PBS, 0.05% Tween 20) for five times using a Biotek ELx405 select CW washer. In the first step, a 384-well ELISA plate was coated with 20 μL of Neutravidin at a concentration of 5 μg/mL in PBS over night at 4° C. After washing, the plate was blocked with 60 μL PBS-T/BSA (2% BSA in PBS containing 0.05% Tween 20) for 1 h at room temperature.
(§2) To allow for detection and quantification of plate-bound lipocalin muteins, the residual supernatants were discarded and 20 μL HRP-labeled anti-hNGAL antibody was added at a predetermined optimal concentration in PBS-T/BSA and incubated for 1 h at RT. The anti-hNGAL antibody had been obtained by immunization of rabbits with a mixture of muteins, and was subsequently coupled to HRP using a kit (EZ-link Plus Activated Peroxidase, Thermo Scientific) according to the manufacturer's instructions, to obtain the antibody-HRP conjugate. After washing, 20 μl fluorogenic HRP substrate (QuantaBlu, Thermo) was added to each well, and the reaction was allowed to proceed for 15 to 60 minutes. The fluorescence intensity of every well on the plate was read using a fluorescence microplate reader (Tecan or Molecular Devices). To evaluate the data, free mutein concentration, c(mutein)free, was calculated based on the standard curve results, and plotted versus ligand concentration, c(Ligand).

[2] = biological target: T2, human beta CGRP (SEQ ID NO: 81) (human, not fully specified); test: as above
T2 construct: also called human βCGRP; hβCGRP
T2 peptide: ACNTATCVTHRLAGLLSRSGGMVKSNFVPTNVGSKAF
Protocol: as §1, §2

[3] = biological target: T3, rat alpha CGRP (SEQ ID NO: 82) (rat); test: as above
T3 construct: also called rat αCGRP; rat α-CGRP
T3 peptide: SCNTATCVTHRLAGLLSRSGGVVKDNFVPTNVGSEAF
Protocol: as §1, §2

[4] = biological target: T4, rat beta CGRP (SEQ ID NO: 83) (rat, not fully specified); test: as above
T4 construct: also called rat βCGRP; rat β-CGRP
T4 peptide: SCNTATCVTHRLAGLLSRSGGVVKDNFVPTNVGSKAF
Protocol: as §1, §2

[5] = biological target: T1, human alpha CGRP (SEQ ID NO: 80); test: SPR Biacore 37 °C, protein captured as ligand, ha CGRP (1-37) injected, 1:1 fit of a flat sensorgram; run 130301_NAN-DS-049
Protocol: (§3) The Biotin CAPture Kit (GE Healthcare) was used to immobilize biotinylated lipocalin muteins to a chip surface. Muteins were biotinylated using standard NHS chemistry. Undiluted Biotin CAPture Reagent (streptavidin conjugated with ss-DNA oligo) was captured on a Sensor Chip CAP with the pre-immobilized complementary ss-DNA oligo. Thereafter, biotinylated muteins at 1 μg/mL were applied for 300 s at a flow rate of 5 μL/min.
(§4) CGRP species were applied in three concentrations of 30 nM, 3 nM and 0.3 nM at a flow rate of 30 μL/min or in a single concentration of 25 nM per cycle as shown in FIG. 2. The dilutions were injected with association times of 180 s and dissociation times of 5400 sec to obtain ka and kd information. Regeneration of the chip surface was achieved by injecting 6 M Guanidinium-HCl+0.25 M NaOH (120 s) with a flow rate of 10 μL/min. […]
(§5) The data were double-referenced by subtraction of the corresponding signals measured for the control channel (loaded with Biotin CAPture reagent only) and by subtraction of buffer injections from the binding responses. Association rate constant ka and dissociation rate constant kd for the binding reaction were determined using Biacore T200 Evaluation Software V2.0 for data processing and kinetic fitting. […]

[6] = biological target: T2, human beta CGRP (SEQ ID NO: 81); test: SPR Biacore 37 °C, protein captured as ligand, hb CGRP (1-37) injected, 1:1 fit of a flat sensorgram; run 130301_NAN-DS-049
Protocol: as §3, §4, §5

[7] = biological target: T3, rat alpha CGRP (SEQ ID NO: 82); test: SPR Biacore 37 °C, protein captured as ligand, ra CGRP (1-37) injected, 1:1 fit of a flat sensorgram; run 130301_NAN-DS-049
Protocol: as §3, §4, §5

[8] = biological target: T4, rat beta CGRP (SEQ ID NO: 83); test: SPR Biacore 37 °C, protein captured as ligand, rb CGRP (1-37) injected, 1:1 fit of a flat sensorgram; run 130301_NAN-DS-049
Protocol: as §3, §4, §5

[9] = biological target: T1, human alpha CGRP (SEQ ID NO: 80); test: SPR Biacore 37 °C, protein captured as ligand, ha CGRP (1-37) injected, 1:1 fit of a flat sensorgram; run 130208_NAN-DS-047 [contd]
Protocol: as §3, §4, §5

[10] = biological target: T2, human beta CGRP (SEQ ID NO: 81); test: SPR Biacore 37 °C, protein captured as ligand, hb CGRP (1-37) injected, 1:1 fit of a flat sensorgram; run 130208_NAN-DS-047 [contd]
Protocol: as §3, §4, §5

[11] = biological target: T3, rat alpha CGRP (SEQ ID NO: 82); test: SPR Biacore 37 °C, protein captured as ligand, ra CGRP (1-37) injected, 1:1 fit of a flat sensorgram; run 130208_NAN-DS-047 [contd]
Protocol: as §3, §4, §5

[12] = biological target: T4, rat beta CGRP (SEQ ID NO: 83); test: SPR Biacore 37 °C, protein captured as ligand, rb CGRP (1-37) injected, 1:1 fit of a flat sensorgram; run 130208_NAN-DS-047 [contd]
Protocol: as §3, §4, §5

[13] = biological target: T1, human alpha CGRP (SEQ ID NO: 80); test: SPR, 37 C, mutein captured, CGRP analyte
Method in brief: (§6)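 Biotinylated lipocalin muteins were captured on streptavidin-oligo CAP chip, and CGRP was injected at 30, 3 and 0.3 nM or at a single 25 nM at 37 °C (180 s association, 5400 s dissociation) in HBS-EP+. Double-referenced sensorgrams were globally fit to a 1:1 model for ka and kd.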

[14] = biological target: T2, human beta CGRP (SEQ ID NO: 81); test: SPR, 37 C, mutein captured, CGRP analyte
Method in brief: as §6

[15] = biological target: T3, rat alpha CGRP (SEQ ID NO: 82); test: SPR, 37 C, mutein captured, CGRP analyte
Method in brief: as §6

[16] = biological target: T4, rat beta CGRP (SEQ ID NO: 83); test: SPR, 37 C, mutein captured, CGRP analyte
Method in brief: as §6

B1: lipocalin mutein SEQ ID NO: 2 (designed binder)
chain: QDSTSDLIPAPPLSKVPLQQNFQDNQFHGKWYVVGEAGNWGLREDKDPKKMAATIYELKEDKSYNVTDVQFIEKKCDYWIGTFVPGSQPGEFTLGAIKSEPGQTSNLVRVVSTNYNQHAMVFFKEVWQNRELFWITLYGRTKELTSELKENFIRFSKSLGLPENHIVFPVPIDQCIDGSAWSHPQFEK
[1]
  IC50: 55 nM
[2]
  IC50: 46 nM
[3]
  IC50: 35 nM
[4]
  IC50: 47 nM

B2: hNGAL wildtype (SEQ ID NO:1) (other)
chain: QDSTSDLIPAPPLSKVPLQQNFQDNQFHGKWYVVGLAGNAILREDKDPQKMYATIYELKEDKSYNVTSVLFRKKKCDYWIRTFVPGSQPGEFTLGNIKSYPGLTSYLVRVVSTNYNQHAMVFFKKVSQNREYFKITLYGRTKELTSELKENFIRFSKSLGLPENHIVFPVPIDQCIDG
notes: also called human lipocalin 2; human Lcn 2
[5]
  koff: 0.00221 s⁻¹
  kon: 1200 M⁻¹ s⁻¹
[6]
  koff: 0.0185 s⁻¹
[7]
  koff: 0.00105 s⁻¹
  kon: 970000 M⁻¹ s⁻¹
[8]
  koff: 0.00233 s⁻¹
  kon: 1.62e+06 M⁻¹ s⁻¹
[9]
  koff: 0.00234 s⁻¹
  kon: 342000 M⁻¹ s⁻¹
[10]
  koff: 0.000159 s⁻¹
  kon: 347000 M⁻¹ s⁻¹
[11]
  koff: 0.00259 s⁻¹
  kon: 1640 M⁻¹ s⁻¹
[12]
  koff: 0.00414 s⁻¹
  kon: 1.1e+06 M⁻¹ s⁻¹

B3: lipocalin mutein SEQ ID NO: 6 (designed binder)
chain: QDSTSDLIPAPPLSKVPLQQNFQDNQFHGKWYVVGIAGNWWLREDKDPLKMYATIYELKEDKSYNVTHVMFMTKKCDYTIRTFVPGSQPGEFTLGNIKSIPGMTSLLVRVVSTNYNQHAMVFFKFVWQNREWFHITLYGRTKELTSELKENFIRFSKSLGLPENHIVFPVPIDQCIDGSAWSHPQFEK
[1]
  IC50: 3.1 nM
[3]
  IC50: 0.77 nM
[4]
  IC50: 1.6 nM

B4: lipocalin mutein SEQ ID NO: 3 (designed binder)
chain: QDSTSDLIPAPPLSKVPLQQNFQDNQFHGKWYVVGFAGNMWLREDKDPFKMGATIYELKEDKSYNVTWVWFEAKKCDYGINTFVPGSQPGEFTLGGIKSPPGMTSHLVRVVSTNYNQHAMVFFKEVFQNREWFWITLYGRTKELTSELKENFIRFSKSLGLPENHIVFPVPIDQCIDGSAWSHPQFEK
[1]
  IC50: 7.5 nM
[2]
  IC50: 14 nM
[4]
  IC50: 12 nM

B5: lipocalin mutein SEQ ID NO: 5 (designed binder)
chain: QDSTSDLIPAPPLSKVPLQQNFQDNQFHGKWYVVGRAGNAELREDKDPEKMEATIYELKEDKSYNVTDVGFWQKKCIYVIHTFVPGSQPGEFTLGNIKSYPGTTSALVRVVSTNYNQHAMVFFKVVRQNREWFEITLYGRTKELTSELKENFIRFSKSLGLPENHIVFPVPIDQCIDGSAWSHPQFEK
[1]
  IC50: 36 nM
[2]
  IC50: 28 nM
[3]
  IC50: 21 nM
[4]
  IC50: 27 nM

B6: lipocalin mutein SEQ ID NO: 4 (designed binder)
chain: QDSTSDLIPAPPLSKVPLQQNFQDNQFHGKWYVVGWAGNTLLREDKDPTKMQATIYELKEDKSYNVTWVYFSEKKCNYHIETFVPGSQPGEFTLGTIKSYPGETSILVRVVSTNYNQHAMVFFKGVSQNREIFEITLYGRTKELTSELKENFIRFSKSLGLPENHIVFPVPIDQCIDGSAWSHPQFEK
notes: biotinylated by NHS chemistry for capture in SPR
[13]
  Kd: 1.82 nM
  koff: 0.00302 s⁻¹
  kon: 1.66e+06 M⁻¹ s⁻¹
[14]
  Kd: 0.753 nM
  koff: 0.00395 s⁻¹
  kon: 5.24e+06 M⁻¹ s⁻¹
[15]
  Kd: 5 nM
  koff: 0.00621 s⁻¹
  kon: 1.24e+06 M⁻¹ s⁻¹
[16]
  Kd: 2.19 nM
  koff: 0.00365 s⁻¹
  kon: 1.66e+06 M⁻¹ s⁻¹
[1]
  IC50: 2.1 nM
[2]
  IC50: 1.8 nM
[3]
  IC50: 2.6 nM
[4]
  IC50: 3 nM
